Signal to noise data for one substance are collected here from patent publication US20180196058A1.

This experiment deals with Recombinant human IFN-gamma (eBioscience) (human) (UniProt P01579). The experiment in a line: sandwich on beads, LC MS/MS of released iCOREs; IFN-gamma iCORE peak against the peak of the iCORE on the anti-TNF-alpha detection antibody.
Chain of Recombinant human IFN-gamma (eBioscience) (human) (P01579 24-166 limits assumed): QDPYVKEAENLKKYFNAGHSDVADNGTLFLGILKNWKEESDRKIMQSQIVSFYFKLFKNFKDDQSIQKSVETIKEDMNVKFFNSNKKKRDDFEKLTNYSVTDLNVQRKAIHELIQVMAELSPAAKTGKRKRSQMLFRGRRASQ

For the substance “iCORE-labeled detection antibody against human IFN-gamma, clone 4S.B3 (eBioscience)”, the signal to noise was 10.
